In assay [1] the target is T1, integrin αvβ1 ectodomain (immobilized) (Homo sapiens (Human), UniProt P06756 31-992; P05556 21-728).
T1 construct: R&D Systems; copies: 1 + 1
The assay is described as follows: binding to immobilized ectodomains.

The target in assay [2] is T2, integrin αvβ5 ectodomain (immobilized) (Homo sapiens (Human), UniProt P06756 31-992; P18084 24-719).
T2 construct: R&D Systems; copies: 1 + 1
The assay is described as follows: binding to immobilized ectodomains.

Assay [3] concerns the target T3, integrin αvβ3 on HEK 293 cells stably expressing αvβ3 (Homo sapiens (Human), UniProt P06756 31-1048; P05106 27-788).
T3 construct: also called αvβ3 expressing 293 cells
The assay is described as follows: flow cytometry on HEK 293 cells stably expressing αvβ3. An excerpt: (§1) A) Binding of anti-β3 (AP3) relative to F12 IgG4, H4C8 RGD1 IgG4,H4C8 RGD3 IgG4, H3C8 RGD3 with VL Fr4 V108/L109 (mouse) IgG4, H4C8 RGD3 IgG4, H3C8 RGD3 VL Fr4 K108/V109 (human) IgG4, H4C8 RGD1 VH Fr3 E72, H4C8 RGD3 VH Fr3 E72 IgG4. HEK 293 cells stably expressing αvβ3 were stained and the percentage of relative binding to the mean fluorescence intensity of AP3 is shown, B) Expi293 cells transiently expressing αvβ6 were stained and the percentage of relative binding to the mean fluorescence intensity of 3G9 is shown, C) HEK 293 cells stably expressing αvβ8 were stained and the percentage of relative binding to the mean fluorescence intensity of HuF12 is shown. All primary antibodies were used at 2.5 ug/ml. […] Binding or 3G9 is shown and percent binding of antibodies relative to 3G9 binding to αvβ6 is shown. Dotted line indicate binding observed with each positive control antibody,
(§2) RGD ligands bind promiscuously to a number of integrins. A highly desirable quality in RGD-mimetics is to retain specificity for some but not all integrins. One highly desirable property would be a dual inhibitor to both the αvβ8- and αvβ6-integrins, without cross-reactivity to other integrins. This property would facilitate specific targeting of integrin-mediated TGF-β activation without the liability of side-effects mediated by broadly blocking other integrins. We first measured binding to αvβ3 expressing 293 cells. Binding of anti-β3 (AP3) relative to F12 IgG4, H4C8 RGD1 IgG4,H4C8 RGD3 IgG4, H3C8 RGD3 with VL Fr4 V108/L109 (mouse) IgG4, H4C8 RGD3 IgG4, H3C8 RGD3 VI Fr4 K108/V109 (human) IgG4, H4C8 RGD1 Vh Fr3 E72, H4C8 RGD3 Vh Fr3 E72 IgG4. […] Expi293 cells transiently expressing αvβ6 were stained and the percentage of relative binding to the mean fluorescence intensity of anti-β6 (3G9) determined.
On the technique in general: A flow cytometer gives signals particle by particle.

Assay [4] has as its target T4, integrin αvβ6 ectodomain (immobilized) (human, UniProt P06756 31-992; P18564 22-709).
T4 construct: extracellular domain; Bought from R&D Systems or made in ExpiCHO cells; also called immobilized human αvβ6
The assay is described as follows: binding to immobilized αvβ6 ectodomain.

Assay [5] concerns the target T5, human integrin αvβ8 on transfected cells (CHO cells stably transfected; HEK 293 cells stably expressing αvβ8) (human, UniProt P06756 31-1048; P26012 43-769).
T5 construct: whole, on cells; also called CHO αvβ8 cells; αvβ8 expressing CHO cells
Description: flow cytometry on HEK 293 cells stably expressing αvβ8.
From the text: as §1, with “FIG. 33 H4C8 RGD3 and H4C8 RGD1 show specificity for αvβ6 and αvβ8, VL Fr4 K108/V109 humanization improves or maintains binding, VH Fr4 Q72 improves binding over E72. A)” for “A)”, “antibody, […]” for “antibody,”

The target of assay [6] is T6, integrin αvβ6 on transfected cells (CHO cells; Expi293 cells transiently expressing αvβ6) (human, UniProt P06756 31-1048; P18564 22-788).
T6 construct: whole, on cells; Legend says 'CHO cells expressing human αvβ8 or αvβ6'; read as human; also called αvβ6 expressing CHO cells
The assay is described as follows: flow cytometry on Expi293 cells transiently expressing αvβ6, antibody at 2.5 µg/ml. On the procedure:
as §1, with “HEK” for “A) Binding of anti-β3 (AP3) relative to F12 IgG4, H4C8 RGD1 IgG4,H4C8 RGD3 IgG4, H3C8 RGD3 with VL Fr4 V108/L109 (mouse) IgG4, H4C8 RGD3 IgG4, H3C8 RGD3 VL Fr4 K108/V109 (human) IgG4, H4C8 RGD1 VH Fr3 E72, H4C8 RGD3 VH Fr3 E72 IgG4. HEK”
as §2, with “cells.” for “cells. Binding of anti-β3 (AP3) relative to F12 IgG4, H4C8 RGD1 IgG4,H4C8 RGD3 IgG4, H3C8 RGD3 with VL Fr4 V108/L109 (mouse) IgG4, H4C8 RGD3 IgG4, H3C8 RGD3 VI Fr4 K108/V109 (human) IgG4, H4C8 RGD1 Vh Fr3 E72, H4C8 RGD3 Vh Fr3 E72 IgG4.”, “determined. […]” for “determined.”

The target of assay [7] is T5, human integrin αvβ8 on transfected …. The assay is described as follows: flow cytometry on HEK 293 cells stably expressing αvβ8, antibody at 2.5 µg/ml.
From the text: as §1, with “FIG. 33 H4C8 RGD3 and H4C8 RGD1 show specificity for αvβ6 and αvβ8, VL Fr4 K108/V109 humanization improves or maintains binding, VH Fr4 Q72 improves binding over E72. A)” for “A)”, “antibody, […]” for “antibody,”

Assay [8] deals with recombinant human integrin αvβ8 ectodomain (human, UniProt P06756 31-992; P26012 43-681). Description: cell-based or functional assay.
Assay [9] addresses T6, integrin αvβ6 on transfected cells (CHO …). Description: flow cytometry on CHO cells expressing αvβ6, antibodies as IgG4.
Assay [10] deals with T4, integrin αvβ6 ectodomain (immobilized). Description: binding to immobilized integrin ectodomains blocked with BSA.
The target of assay [11] is T1, integrin αvβ1 ectodomain (immobilized). The description is as above.
Assay [12] concerns the target T2, integrin αvβ5 ectodomain (immobilized). The description is as above.

3 molecules from patent US20260139057A1 (University of California, published 2026) can be followed below.

T2 sequence (P06756 31-992 limits assumed, chain 1 of 2): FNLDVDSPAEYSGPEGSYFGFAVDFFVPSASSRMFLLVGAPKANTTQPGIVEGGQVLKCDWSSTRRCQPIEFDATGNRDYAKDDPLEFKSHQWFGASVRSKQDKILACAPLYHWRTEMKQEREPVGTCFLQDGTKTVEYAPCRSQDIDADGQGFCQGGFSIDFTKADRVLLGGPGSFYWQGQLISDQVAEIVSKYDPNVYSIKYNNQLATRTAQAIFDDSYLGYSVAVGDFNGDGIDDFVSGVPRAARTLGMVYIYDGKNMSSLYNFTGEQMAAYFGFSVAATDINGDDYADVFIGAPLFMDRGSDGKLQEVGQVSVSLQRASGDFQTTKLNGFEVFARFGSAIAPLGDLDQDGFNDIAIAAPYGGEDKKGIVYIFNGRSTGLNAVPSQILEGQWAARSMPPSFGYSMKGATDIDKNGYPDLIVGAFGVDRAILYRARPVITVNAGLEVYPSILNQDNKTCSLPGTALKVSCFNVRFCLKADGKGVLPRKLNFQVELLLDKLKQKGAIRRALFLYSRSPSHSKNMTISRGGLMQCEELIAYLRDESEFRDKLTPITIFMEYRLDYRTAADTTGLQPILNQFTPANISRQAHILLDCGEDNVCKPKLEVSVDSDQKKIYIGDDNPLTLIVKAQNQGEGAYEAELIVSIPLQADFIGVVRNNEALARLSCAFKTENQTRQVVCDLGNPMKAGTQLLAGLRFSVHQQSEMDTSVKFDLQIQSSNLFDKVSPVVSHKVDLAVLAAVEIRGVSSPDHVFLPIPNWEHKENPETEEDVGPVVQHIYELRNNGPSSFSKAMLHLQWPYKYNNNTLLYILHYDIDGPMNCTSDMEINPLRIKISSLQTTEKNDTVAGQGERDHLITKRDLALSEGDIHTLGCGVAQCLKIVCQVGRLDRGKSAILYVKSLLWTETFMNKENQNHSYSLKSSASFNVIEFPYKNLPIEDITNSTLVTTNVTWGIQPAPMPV
T2 sequence (P18084 24-719 limits assumed, chain 2 of 2): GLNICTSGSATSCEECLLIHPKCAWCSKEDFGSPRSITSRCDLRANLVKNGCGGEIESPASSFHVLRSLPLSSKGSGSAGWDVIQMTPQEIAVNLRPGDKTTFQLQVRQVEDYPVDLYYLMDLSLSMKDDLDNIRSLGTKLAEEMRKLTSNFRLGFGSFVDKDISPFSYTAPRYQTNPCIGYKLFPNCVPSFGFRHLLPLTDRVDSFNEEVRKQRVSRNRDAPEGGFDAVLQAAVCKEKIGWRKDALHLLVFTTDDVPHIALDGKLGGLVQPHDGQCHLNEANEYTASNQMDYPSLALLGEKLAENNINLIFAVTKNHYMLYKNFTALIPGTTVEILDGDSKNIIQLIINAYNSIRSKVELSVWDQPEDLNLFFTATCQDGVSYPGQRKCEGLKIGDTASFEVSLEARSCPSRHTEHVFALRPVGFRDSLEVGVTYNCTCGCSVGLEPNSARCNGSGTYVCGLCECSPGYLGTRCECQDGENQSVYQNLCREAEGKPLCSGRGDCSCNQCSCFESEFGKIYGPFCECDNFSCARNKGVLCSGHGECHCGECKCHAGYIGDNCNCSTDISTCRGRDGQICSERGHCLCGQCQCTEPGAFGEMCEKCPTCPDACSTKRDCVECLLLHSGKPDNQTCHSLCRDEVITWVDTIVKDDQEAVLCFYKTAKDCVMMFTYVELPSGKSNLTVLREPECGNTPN
T4 sequence (P06756 31-992, chain 1 of 2): as the sequence (P06756 31-992 limits assumed, chain 1 of 2) above
T4 sequence (P18564 22-709, chain 2 of 2): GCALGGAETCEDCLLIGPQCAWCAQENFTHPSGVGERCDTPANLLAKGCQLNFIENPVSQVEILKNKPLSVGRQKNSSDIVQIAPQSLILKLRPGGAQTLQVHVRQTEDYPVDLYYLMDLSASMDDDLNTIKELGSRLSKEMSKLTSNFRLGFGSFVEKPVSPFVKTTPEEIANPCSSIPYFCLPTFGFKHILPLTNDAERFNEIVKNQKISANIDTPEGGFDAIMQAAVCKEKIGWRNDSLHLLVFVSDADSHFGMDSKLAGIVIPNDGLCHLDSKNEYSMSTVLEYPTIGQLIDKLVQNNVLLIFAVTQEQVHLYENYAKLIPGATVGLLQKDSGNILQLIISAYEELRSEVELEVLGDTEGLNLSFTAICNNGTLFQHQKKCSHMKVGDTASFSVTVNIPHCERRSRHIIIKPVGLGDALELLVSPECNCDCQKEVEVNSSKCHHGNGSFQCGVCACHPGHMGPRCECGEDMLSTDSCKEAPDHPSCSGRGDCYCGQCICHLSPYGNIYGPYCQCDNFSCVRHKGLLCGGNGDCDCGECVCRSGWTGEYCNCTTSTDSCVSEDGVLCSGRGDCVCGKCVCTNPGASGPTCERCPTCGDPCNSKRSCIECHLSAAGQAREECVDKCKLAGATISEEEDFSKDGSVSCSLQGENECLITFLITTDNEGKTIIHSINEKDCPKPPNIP
T1 sequence (P06756 31-992 limits assumed, chain 1 of 2): as the sequence (P06756 31-992 limits assumed, chain 1 of 2) above
T1 sequence (P05556 21-728 limits assumed, chain 2 of 2): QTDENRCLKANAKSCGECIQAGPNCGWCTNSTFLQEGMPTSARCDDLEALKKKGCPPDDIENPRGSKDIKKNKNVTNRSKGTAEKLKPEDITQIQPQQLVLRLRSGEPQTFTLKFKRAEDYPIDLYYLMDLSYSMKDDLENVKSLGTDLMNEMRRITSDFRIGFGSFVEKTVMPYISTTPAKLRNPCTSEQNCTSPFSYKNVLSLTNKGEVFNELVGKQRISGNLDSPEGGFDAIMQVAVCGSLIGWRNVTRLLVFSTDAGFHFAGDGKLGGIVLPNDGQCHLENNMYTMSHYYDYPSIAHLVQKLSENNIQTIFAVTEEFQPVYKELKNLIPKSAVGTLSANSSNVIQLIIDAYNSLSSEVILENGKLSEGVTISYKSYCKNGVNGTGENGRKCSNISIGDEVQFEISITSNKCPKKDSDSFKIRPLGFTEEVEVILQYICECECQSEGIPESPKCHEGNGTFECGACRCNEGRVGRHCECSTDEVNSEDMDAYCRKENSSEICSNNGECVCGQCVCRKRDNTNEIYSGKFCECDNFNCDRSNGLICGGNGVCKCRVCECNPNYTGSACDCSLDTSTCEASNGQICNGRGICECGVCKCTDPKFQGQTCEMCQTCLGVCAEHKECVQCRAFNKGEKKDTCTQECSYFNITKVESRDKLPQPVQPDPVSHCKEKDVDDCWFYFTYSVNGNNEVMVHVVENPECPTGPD
T6 sequence (P06756 31-1048, chain 1 of 2): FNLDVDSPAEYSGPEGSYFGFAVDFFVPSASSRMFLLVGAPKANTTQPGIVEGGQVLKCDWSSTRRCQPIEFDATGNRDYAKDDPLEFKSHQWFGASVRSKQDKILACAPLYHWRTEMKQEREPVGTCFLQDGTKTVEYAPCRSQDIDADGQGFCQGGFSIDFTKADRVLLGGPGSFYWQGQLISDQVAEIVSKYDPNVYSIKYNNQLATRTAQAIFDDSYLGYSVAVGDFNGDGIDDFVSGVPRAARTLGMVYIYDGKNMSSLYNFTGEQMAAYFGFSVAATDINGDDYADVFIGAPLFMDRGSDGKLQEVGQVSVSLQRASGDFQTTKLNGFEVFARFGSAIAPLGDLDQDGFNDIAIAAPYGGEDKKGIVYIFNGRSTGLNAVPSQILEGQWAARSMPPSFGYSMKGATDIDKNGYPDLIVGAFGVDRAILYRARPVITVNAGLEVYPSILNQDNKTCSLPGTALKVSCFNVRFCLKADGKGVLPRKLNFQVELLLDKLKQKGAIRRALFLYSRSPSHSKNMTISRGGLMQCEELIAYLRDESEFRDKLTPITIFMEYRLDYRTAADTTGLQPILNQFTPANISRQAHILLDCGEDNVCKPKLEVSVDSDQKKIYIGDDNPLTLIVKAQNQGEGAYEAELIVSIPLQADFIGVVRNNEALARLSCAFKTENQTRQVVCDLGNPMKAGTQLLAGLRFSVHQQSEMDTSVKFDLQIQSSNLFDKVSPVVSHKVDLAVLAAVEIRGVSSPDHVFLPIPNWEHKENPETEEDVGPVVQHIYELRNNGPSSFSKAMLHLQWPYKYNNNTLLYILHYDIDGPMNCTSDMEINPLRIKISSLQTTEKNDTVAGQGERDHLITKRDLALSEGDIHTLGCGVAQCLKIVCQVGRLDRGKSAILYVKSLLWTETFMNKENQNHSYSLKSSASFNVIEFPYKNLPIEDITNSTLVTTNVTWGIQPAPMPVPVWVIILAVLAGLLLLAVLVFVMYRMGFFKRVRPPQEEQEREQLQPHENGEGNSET
T6 sequence (P18564 22-788, chain 2 of 2): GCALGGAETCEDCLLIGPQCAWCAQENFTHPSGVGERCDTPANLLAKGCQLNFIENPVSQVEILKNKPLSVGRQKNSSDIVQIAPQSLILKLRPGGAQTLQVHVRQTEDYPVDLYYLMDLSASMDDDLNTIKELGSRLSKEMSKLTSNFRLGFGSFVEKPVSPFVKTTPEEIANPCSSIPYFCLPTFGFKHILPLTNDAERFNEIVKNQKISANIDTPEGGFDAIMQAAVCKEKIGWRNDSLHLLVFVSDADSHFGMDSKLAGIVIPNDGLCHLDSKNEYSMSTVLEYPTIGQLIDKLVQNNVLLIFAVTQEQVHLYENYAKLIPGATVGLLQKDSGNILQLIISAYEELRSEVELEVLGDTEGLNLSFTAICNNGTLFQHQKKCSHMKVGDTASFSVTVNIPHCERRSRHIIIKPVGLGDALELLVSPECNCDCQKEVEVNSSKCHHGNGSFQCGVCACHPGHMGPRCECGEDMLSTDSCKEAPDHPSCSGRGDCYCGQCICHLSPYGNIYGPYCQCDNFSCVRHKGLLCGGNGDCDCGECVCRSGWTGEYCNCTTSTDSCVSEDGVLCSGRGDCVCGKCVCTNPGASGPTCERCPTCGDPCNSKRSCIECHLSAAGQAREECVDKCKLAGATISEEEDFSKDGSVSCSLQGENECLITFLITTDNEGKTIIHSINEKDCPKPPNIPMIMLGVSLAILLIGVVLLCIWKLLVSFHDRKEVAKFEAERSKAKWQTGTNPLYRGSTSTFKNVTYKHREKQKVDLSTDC

B1: H4C8 RGD1 VH Fr3 E72 (antibody, IgG4, V domains shown)
VH: QVQLVQSGAEVKKPGASVKVSCKVSGYTLTRQSMHWVRQAPGKGLEWMGRINTETGEPTYAQKFQGRVTMTEDTSTDTAYMELSSLRSEDTAVYFCAIFYYGRDTWGQGTTVTVSS
VL: EIVMTQSPATLSVSPGERVTLSCKSSQSLLRRGDLATIHGNALAWYQQKPGQAPRLLIYWASTRETGVPARFSGSGSGTEFTLTISSLQSEDFAVYYCKQSYNLLSFGQGTKVEIKR
Turning to B1, the binding result in [1] is recorded as “no binding”; in [2] it was “no binding”; in assay [3], “no binding (tested: 2.5 µg/ml)”; in assay [4] it was “binds”; in assay [5], “no binding (tested: 2.5 µg/ml)”; in assay [6], “binds”.

B2: H4C8 RGD3 VH Fr3 E72 IgG4 (antibody, V domains shown)
VH: QVQLVQSGAEVKKPGASVKVSCKVSGYTLTRQSMHWVRQAPGKGLEWMGRINTETGEPTYAQKFQGRVTMTEDTSTDTAYMELSSLRSEDTAVYFCAIFYYGRDTWGQGTTVTVSS
VL: EIVMTQSPATLSVSPGERVTLSCKSSQSLLGRGDLGRLKKNALAWYQQKPGQAPRLLIYWASTRETGVPARFSGSGSGTEFTLTISSLQSEDFAVYYCKQSYNLLSFGQGTKVEIKR
notes: IgG4
Take B2: the binding result in [7] is “binds”; in assay [1], “no binding”; in [2] it was “no binding”; in assay [3] it was “no binding (tested: 2.5 µg/ml)”; in assay [4] it was “binds”; in [6], “binds”.

B3: HuC6D4 F12 IgG4 (antibody)
heavy: QIQLVQSGAEVKKPGASVKISCKASGYTFTKYSMHWVRQAPGQGLEWVARINTETGEPTFADDFRGRFTVTLDTSTSTAYLEIRSLRSDDTAVYFCAIFYYGRDTWGQGTTLTVSSASTKGPSVFPLAPCSRSTSESTAALGCLVKDYFPEPVTVSWNSGALTSGVHTFPAVLQSSGLYSLSSVVTVPSSSLGTKTYTCNVDHKPSNTKVDKRVESKYGPPCPPCPAPEFLGGPSVFLFPPKPKDTLMISRTPEVTCVVVDVSQEDPEVQFNWYVDGVEVHNAKTKPREEQFNSTYRVVSVLTVLHQDWLNGKEYKCKVSNKGLPSSIEKTISKAKGQPREPQVYTLPPSQEEMTKNQVSLTCLVKGFYPSDIAVEWESNGQPENNYKTTPPVLDSDGSFFLYSKLTVDKSRWQEGNVFSCSVMHEALHNHYTQKSLSLSPGK
VL: EIVMTQSPATLSVSPGERVTMSCKSSQSLLHSRSRKNYLAWYQQKPGQAPRLLIYWASTRESGVPARFSGSGSGTEFTLTISSVQSEDFAVYYCKQSYNLLSFGQGTVLEIKR
notes: also called HuF12
In the case of B3, in assay [8], the “ED50 of the inhibition of αvβ8-mediated TGF-β activation (immobilized human αvβ8, TMLC GARP/L-TGF-β reporter cells)” value amounted to 0.14 µg/mL. The binding result in assay [9] was “no binding (tested: 1 µg/mL)”; in assay [3], “no binding (tested: 2.5 µg/ml)”; in assay [10], “no binding”; in assay [11], “no binding”; in [12] it was “no binding”.
